Measurements from the supplement of paper PMC10724198.
± gives the standard deviation of the averaged measurements.
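Further: PSI is a weighted mean of sequencing reads over stability bins, variants kept only with over 10 reads, mCherry proximal and sfGFP distal, peptide attached via GGGS linker.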

These sequences were tested on Saccharomyces cerevisiae (assay: protein stability index of tFT-peptide fusion (C-terminal peptide) (PSI (0-1 scale)); higher = more stable (slower turnover)). Settings: genetic background: wild type; temperature: 30 C.
Protocol: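 Multiplexed protein stability (MPS) profiling in S. cerevisiae. Random 12-aa peptides (tFT-X12 library) are fused to the C-terminus of a sfGFP-mCherry tandem fluorescent timer, after mCherry and a GGGS linker. Cells are FACS-sorted into 8 mCherry/sfGFP bins and deep-sequenced. The protein stability index (PSI) is the read-weighted bin average, scaled from 0 (unstable) to 1 (stable). Only peptides with >10 reads are reported; cells were grown at 30 °C in SC-His with glucose.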
DIWEFYNNLYSS was tested, and the protein stability index was 0.719 ± 0.013. With DKGTMNRARGGS the protein stability index was 0.683 ± 0.024. For DKKNIRIYNKTL, the protein stability index was 0.669 ± 0.042. With DKLLTYTLGARI the protein stability index was 0.69 ± 0.016. With DLAIPPPRPRFF the protein stability index was 0.701 ± 0.013. Work on DLHCRSAILALL yielded a protein stability index of 0.594 ± 0.034. Work on DLLCLWEFPSIP yielded a protein stability index of 0.731 ± 0.12. With DLPRLGLPRRAC the protein stability index was 0.63 ± 0.047. DLQACGATSKAS was tested, and the protein stability index was 0.683 ± 0.059. With DLSDPGHSLSIL the protein stability index was 0.68 ± 0.055. DLTPLSSSRLPP was tested, and the protein stability index was 0.652 ± 0.04. DMPIVVDGSLVR showed a protein stability index of 0.684 ± 0.027. DNLFSPTLLWEL was tested, and the protein stability index was 0.6674 ± 0.0034. For DNSDIKKGARRI, the protein stability index was 0.707 ± 0.014. For DNSSLGSIGTDI, the protein stability index was 0.645 ± 0.046. DPAPSPTGMCTR was tested, and the protein stability index was 0.688 ± 0.016. For DPLSPLPPPPPP, the protein stability index was 0.635 ± 0.14. DPPLSGRAKGPH showed a protein stability index of 0.709 ± 0.02. DPRAGLGLLELT showed a protein stability index of 0.644 ± 0.067. With DQFRLLQYWEAS the protein stability index was 0.72 ± 0.048. With DQTPRWQRCTRQ the protein stability index was 0.733 ± 0.12. In the case of DQVGLVLSDLIY, the protein stability index is reported as 0.7272 ± 0.00085. DREKGGLREADQ was tested, and the protein stability index was 0.669 ± 0.035. For DREKRKSGGERR, the protein stability index was 0.647 ± 0.039. For DRGSGRFVRGGL, the protein stability index was 0.664 ± 0.083. DRKDGVSVSVGY showed a protein stability index of 0.675 ± 0.05. Work on DRLGFGPVSRID yielded a protein stability index of 0.665 ± 0.064. For DRPPYTPHPPYP, the protein stability index was 0.7521 ± 0.0073. DRPSPGLALGGP gave a protein stability index of 0.7314 ± 0.0023. With DRRNNRLIRRNQ the protein stability index was 0.7174 ± 0.0045. Work on DRSRESSMSLPD yielded a protein stability index of 0.711 ± 0.0076. In the case of DRSRSPCPCSSP, the protein stability index is reported as 0.6898 ± 0.0022. Sequence DSCPGAAGGRGG has a protein stability index of 0.642 ± 0.043. DSGTIWFPTHFV showed a protein stability index of 0.7151 ± 0.0044. In the case of DSGVAVVLVGCV, the protein stability index is reported as 0.529 ± 0.013. DSPASHWSVKSL gave a protein stability index of 0.638 ± 0.043. DSTTGALILLPV gave a protein stability index of 0.692 ± 0.021. Sequence DTDIHRKRTRQV has a protein stability index of 0.7 ± 0.037. Sequence DTIQFLQCYRPI has a protein stability index of 0.655 ± 0.035. DTSRGDWEVFLI gave a protein stability index of 0.713 ± 0.061. Work on DTYKDSHLNRRI yielded a protein stability index of 0.664 ± 0.022. With DVCFIRRRYKKI the protein stability index was 0.669 ± 0.041. With DVERKKIKIARQ the protein stability index was 0.714 ± 0.047. Work on DVHNRSPNRAPE yielded a protein stability index of 0.671 ± 0.042. For DVNTGYHFLRDL, the protein stability index was 0.6757 ± 0.0015. For DVRLGSQGSFRW, the protein stability index was 0.705 ± 0.01. DVRYQSLRRSGF was tested, and the protein stability index was 0.725 ± 0.028. For DVWVLAANSSLG, the protein stability index was 0.758 ± 0.1. In the case of DWGGRRVTEEEG, the protein stability index is reported as 0.641 ± 0.029. Sequence DYLSSPLSSPSP has a protein stability index of 0.667 ± 0.066. With DYSTLFVSVADP the protein stability index was 0.667 ± 0.0069. EAGMGVGRCGTG was tested, and the protein stability index was 0.728 ± 0.01. For EARMGGGRCGTG, the protein stability index was 0.684 ± 0.008. For EAWRQGRAGRGP, the protein stability index was 0.6148 ± 0.0034. With ECGGAVALSDRA the protein stability index was 0.7672 ± 0.0018. Sequence ECPYFSHTPVAV has a protein stability index of 0.644 ± 0.032. ECVERYLFGEGA was tested, and the protein stability index was 0.71403 ± 0.00042. In the case of ECVGSSKVYMLL, the protein stability index is reported as 0.677 ± 0.092. Work on ECYLYGSMDGFI yielded a protein stability index of 0.588 ± 0.036. EDVEGVWVKGCE was tested, and the protein stability index was 0.725 ± 0.17. For EEAGETAGGRRE, the protein stability index was 0.648 ± 0.093. For EEGGEVREGKQA, the protein stability index was 0.702 ± 0.019. In the case of EEHVIQNIKCKN, the protein stability index is reported as 0.738 ± 0.037. EELGRGLESLGL showed a protein stability index of 0.699 ± 0.076. EEPVVSNPPLLA gave a protein stability index of 0.688 ± 0.033. With EERNNQRKKRKG the protein stability index was 0.709 ± 0.038. In the case of EERNSVRGYTES, the protein stability index is reported as 0.734 ± 0.028. EESRVRTTNNTT showed a protein stability index of 0.666 ± 0.057. Work on EFFAPDVVALMR yielded a protein stability index of 0.692 ± 0.17. Work on EFPRHDLDCSLV yielded a protein stability index of 0.7095 ± 0.00082. In the case of EGAQVVLVRVGV, the protein stability index is reported as 0.547 ± 0.012. With EGDGLGWGGQGG the protein stability index was 0.67 ± 0.013. With EGDTPFKNRVKF the protein stability index was 0.716 ± 0.061. For EGEEVNTGGEEA, the protein stability index was 0.642 ± 0.017. In the case of EGEGPRGNGSGA, the protein stability index is reported as 0.648 ± 0.043. EGGLDPFRVIMG showed a protein stability index of 0.643 ± 0.029. EGLCVLMTQVGG was tested, and the protein stability index was 0.576 ± 0.016. With EGRCPAMRGAFG the protein stability index was 0.6797 ± 0.0041. EGRPGGVGEGSQ gave a protein stability index of 0.671 ± 0.011. Sequence EGSRRQERAGRQ has a protein stability index of 0.6668 ± 0.0028. For EGTPGARSQGRE, the protein stability index was 0.662 ± 0.035. Work on EGVGRRICSPQA yielded a protein stability index of 0.648 ± 0.031. Work on EGVVGGRWCGRG yielded a protein stability index of 0.676 ± 0.082. EGWLVDVDRIVG was tested, and the protein stability index was 0.741 ± 0.076. For EHLQTHYLWSTG, the protein stability index was 0.701 ± 0.062. Work on EIDAKNRDEETN yielded a protein stability index of 0.694 ± 0.019. Sequence EILQDRAVSKGR has a protein stability index of 0.697 ± 0.039. For EITRRAQHWKAK, the protein stability index was 0.708 ± 0.018. For EKEFLWKAISAV, the protein stability index was 0.504 ± 0.016. Work on EKEKKKVHRQEE yielded a protein stability index of 0.712 ± 0.059. In the case of EKGKGREIKKGE, the protein stability index is reported as 0.646 ± 0.048. For EKGRKKTYGDEK, the protein stability index was 0.669 ± 0.02. EKGSIYVVQYGK gave a protein stability index of 0.683 ± 0.022. Sequence EKHNNNRYKQYL has a protein stability index of 0.7255 ± 0.0052. EKKEHNHKVKYN showed a protein stability index of 0.626 ± 0.026. For EKKKKIKNKESI, the protein stability index was 0.6932 ± 0.0036. Work on EKKKKKAKKEKN yielded a protein stability index of 0.764 ± 0.045. EKMDIEKKVEGS showed a protein stability index of 0.812 ± 0.12. EKNRRCQKRKKK was tested, and the protein stability index was 0.726 ± 0.054. EKQIREERRKIE gave a protein stability index of 0.704 ± 0.062. EKRDENENTNKK gave a protein stability index of 0.66 ± 0.072. EKRERKRDSGHR showed a protein stability index of 0.685 ± 0.063. EKTQQMPQPNNQ showed a protein stability index of 0.663 ± 0.007. EKTTDIKENERR showed a protein stability index of 0.692 ± 0.029. In the case of ELINQENQPAYE, the protein stability index is reported as 0.671 ± 0.038. With ELRCSRPIHSDF the protein stability index was 0.681 ± 0.013. Work on ELRISSTTVTSP yielded a protein stability index of 0.664 ± 0.008. For ELRTKRGASNPR, the protein stability index was 0.7097 ± 0.0021. With ELSNLRGLHTCT the protein stability index was 0.654 ± 0.02. Sequence ELVSFPIGGMGS has a protein stability index of 0.671 ± 0.056. Sequence ENDRKKDKERIK has a protein stability index of 0.678 ± 0.013. Work on ENKIKERPKMRY yielded a protein stability index of 0.658 ± 0.026. Work on ENLVLRDRGRGM yielded a protein stability index of 0.692 ± 0.017. ENNKRRTKRHKE was tested, and the protein stability index was 0.62791 ± 0.00025. ENVINGLITIKK showed a protein stability index of 0.742 ± 0.039. EPDCLVSSSVGI gave a protein stability index of 0.686 ± 0.049. Sequence EPDQERKSIQGM has a protein stability index of 0.7 ± 0.013. With EPPRSPRSLPPL the protein stability index was 0.661 ± 0.0073. EPTLLVRMVANR was tested, and the protein stability index was 0.529 ± 0.026. For EQGIRHVRAIVV, the protein stability index was 0.539 ± 0.012. EQRNLELSGHIC was tested, and the protein stability index was 0.725 ± 0.12. ERCVCLRGVSSG was tested, and the protein stability index was 0.708 ± 0.011. With EREGVREGEGRV the protein stability index was 0.654 ± 0.02. For ERGGWGGGSEVG, the protein stability index was 0.684 ± 0.091. With ERIKQGKKKRGT the protein stability index was 0.778 ± 0.12. ERKGIIIGHSHS was tested, and the protein stability index was 0.71 ± 0.037. ERKKPKKKRMRY was tested, and the protein stability index was 0.706 ± 0.011. ERLHRRRRGECA gave a protein stability index of 0.6743 ± 0.0061. Work on ERPQTKPCQTPL yielded a protein stability index of 0.728 ± 0.038. ERWSHNKEDDRN showed a protein stability index of 0.6577 ± 0.0048. With ERYKKRGKTNKV the protein stability index was 0.662 ± 0.0076. ESAGLAGLSRAA gave a protein stability index of 0.668 ± 0.022. Sequence ESEKKHNKKRRV has a protein stability index of 0.654 ± 0.069. With ESLRNGKKYNKL the protein stability index was 0.7417 ± 0.0017. With ESLSAVAAGRGM the protein stability index was 0.689 ± 0.024. ETEQTSIRRIKQ showed a protein stability index of 0.728 ± 0.012. In the case of ETKKGKKKKMTM, the protein stability index is reported as 0.682 ± 0.0069. ETVIQRFLSGHI gave a protein stability index of 0.699 ± 0.017. In the case of EVDSTLAPHGHP, the protein stability index is reported as 0.866 ± 0.041. EVEGFLFVFEVK gave a protein stability index of 0.609 ± 0.015. With EVFGLWQGCFVW the protein stability index was 0.728 ± 0.058. EVGQLQPNGGWV was tested, and the protein stability index was 0.661 ± 0.033. Sequence EVNYKKRQNKKN has a protein stability index of 0.71 ± 0.0066. EVTRAGEDAGDG was tested, and the protein stability index was 0.643 ± 0.023. EVTSQGWRNGVD showed a protein stability index of 0.742 ± 0.028. With EVWQGRLKGVLG the protein stability index was 0.691 ± 0.031. EWEEGREIGGRV was tested, and the protein stability index was 0.69633 ± 0.00068. For EWGEEDRDGNGR, the protein stability index was 0.721 ± 0.053. Work on EWPTESSLSSET yielded a protein stability index of 0.689 ± 0.081. EWTTEQRSVGPR gave a protein stability index of 0.683 ± 0.02. In the case of EWVCRAGVQGGA, the protein stability index is reported as 0.691 ± 0.017. EWVYSGDGMGVG gave a protein stability index of 0.622 ± 0.03. In the case of EWYRNNFFFLDL, the protein stability index is reported as 0.772 ± 0.02. EYLHPARITGVL gave a protein stability index of 0.733 ± 0.11. Work on EYRVRHSVDARS yielded a protein stability index of 0.6241 ± 0.0019.
